Laboratory results published in patent publication US20260035462A1 (Hoffmann-La Roche, published 2026).
Like-named read-outs stand apart in the source and are kept apart here.

How the values were obtained:
[1] = target: T1, human CD3 on Jurkat NFAT reporter T cells (human, UniProt P07766 23-207); experiment: flow cytometry on Jurkat NFAT reporter T cells (human CD3), 1:4 titration from 50 nM, FITC anti-human IgG Fcγ secondary antibody, median fluorescence; sample pre-incubated overnight with Matriptase (+M)
T1 construct: whole, on cells; also called CD3 on Jurkat T cells
T1 sequence (P07766 23-207): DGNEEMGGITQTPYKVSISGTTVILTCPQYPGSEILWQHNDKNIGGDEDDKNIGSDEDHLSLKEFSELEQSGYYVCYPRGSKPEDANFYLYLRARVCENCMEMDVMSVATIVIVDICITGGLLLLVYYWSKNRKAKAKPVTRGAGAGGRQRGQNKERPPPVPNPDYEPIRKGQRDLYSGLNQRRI
Protocol: (§1) Jurkat-NFAT reporter cells (GloResponse Jurkat NFAT-RE-luc2P; Promega #CS176501) are a human acute lymphatic leukemia reporter cell line with a NFAT promoter, expressing human CD3. The cells were cultured in RPMI1640, 2 g/l glucose, 2 g/l NaHCO₃, 10% FBS, 25 mM HEPES, 2 mM L-glutamin, 1×NEAA, 1× sodium-pyruvate at 0.1-0.5 mio cells per ml.
(§2) The next day, Jurkat cells were harvested and transferred into a 96 well round bottom plate (100,000 cells per well). […] After the staining, the cells were washed twice with FACS buffer to remove unbound molecules. […] After 30 minutes incubation at 4° C. the cells were washed twice with FACS buffer to remove unbound antibodies. Finally, the cells were resuspended in 100 μl FACS buffer and analyzed by flow cytometry using BD Canto II.

[2] = target: T1, human CD3 on Jurkat NFAT reporter T …; experiment: flow cytometry on Jurkat NFAT reporter T cells (human CD3), 1:4 titration from 50 nM, FITC anti-human IgG Fcγ secondary antibody, median fluorescence; sample not treated with Matriptase
Protocol: as §1, §2

[3] = target: T2, Trop2 on human cancer cell lines (T-47D, HPAF II, HeLa NLR, OVMANA) (human, UniProt P09758 27-323); experiment: flow cytometry on HeLa ST14 cells, FITC anti-human IgG Fcγ secondary antibody, median fluorescence
T2 construct: whole, on cells; also called Tumor-associated calcium signal transducer 2
T2 sequence (looked up): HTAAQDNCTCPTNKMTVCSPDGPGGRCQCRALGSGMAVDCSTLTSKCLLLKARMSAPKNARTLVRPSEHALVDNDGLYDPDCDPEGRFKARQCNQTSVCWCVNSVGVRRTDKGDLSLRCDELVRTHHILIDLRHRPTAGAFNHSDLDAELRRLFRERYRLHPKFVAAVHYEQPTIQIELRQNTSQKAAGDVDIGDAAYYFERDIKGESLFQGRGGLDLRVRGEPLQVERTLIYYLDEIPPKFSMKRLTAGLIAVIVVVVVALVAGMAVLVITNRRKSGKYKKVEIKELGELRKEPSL
Protocol: (§3) Target cells were harvested and transferred into a 96 well round bottom plate (100,000 cells per well). […] After the staining, the cells were washed twice with FACS buffer to remove unbound molecules. […] After 30 minutes incubation at 4° C. the cells were washed twice with FACS buffer to remove unbound antibodies. Finally, the cells were resuspended in 100 μl FACS buffer and analyzed by flow cytometry using BD Canto II.

[4] = target: T2, Trop2 on human cancer cell lines …; experiment: flow cytometry on T-47D cells, FITC anti-human IgG Fcγ secondary antibody, median fluorescence
Protocol: as §3

[5] = target: T2, Trop2 on human cancer cell lines …; experiment: flow cytometry on OVMANA cells, FITC anti-human IgG Fcγ secondary antibody, median fluorescence
Protocol: as §3

[6] = target: T2, Trop2 on human cancer cell lines …; experiment: flow cytometry on HPAF II cells, FITC anti-human IgG Fcγ secondary antibody, median fluorescence
Protocol: as §3

[7] = target: T1, human CD3 on Jurkat NFAT reporter T …; experiment: flow cytometry on Jurkat NFAT reporter T cells (human CD3), 1:4 titration from 50 nM, FITC anti-human IgG Fcγ secondary antibody, median fluorescence; sample not treated with Matriptase; remark: listed apart in the source
Protocol: Jurkat-NFAT reporter cells (GloResponse Jurkat NFAT-RE-luc2P; Promega #CS176501) are a human acute lymphatic leukemia reporter cell line with a NFAT promoter, expressing human CD3. The cells were cultured in RPMI1640, 2 g/l glucose, 2 g/l NaHCO₃, 10% FBS, 25 mM HEPES, 2 mM L-glutamin, 1×NEAA, 1×sodium-pyruvate at 0.1-0.5 mio cells per ml.
The next day, Jurkat cells were harvested and transferred into a 96 well round bottom plate (100′000 cells per well). […] After the staining, the cells were washed twice with FACS buffer to remove unbound molecules. […] After 30 min incubation at 4° C. the cells were washed twice with FACS buffer to remove unbound antibodies. Finally, the cells were resuspended in a 100 μl FACS buffer and analyzed by flow cytometry using BD Canto II.

B1: Matriptase pre-cleaved Trop2 proTCB (P1AI0690 after overnight incubation with Matriptase) (bispecific antibody)
heavy 1: DIQMTQSPSSLSASVGDRVTITCKASQDVSIAVAWYQQKPGKAPKVLIYSASYRYTGVPDRFSGSGSGTDFTFTISSLQPEDIAVYYCQQHYITPLTFGGGTKVEIKSSASTKGPSVFPLAPSSKSTSGGTAALGCLVKDYFPEPVTVSWNSGALTSGVHTFPAVLQSSGLYSLSSVVTVPSSSLGTQTYICNVNHKPSNTKVDKKVEPKSCDKTHTCPPCPAPEAAGGPSVFLFPPKPKDTLMISRTPEVTCVVVDVSHEDPEVKFNWYVDGVEVHNAKTKPREEQYNSTYRVVSVLTVLHQDWLNGKEYKCKVSNKALGAPIEKTISKAKGQPREPQVCTLPPSRDELTKNQVSLSCAVKGFYPSDIAVEWESNGQPENNYKTTPPVLDSDGSFFLVSKLTVDKSRWQQGNVFSCSVMHEALHNHYTQKSLSLSPG
heavy 2: not shown
light 1: QAVVTQEPSLTVSPGGTVTLTCGSSTGAVTTSNYANWVQEKPGQAFRGLIGGTNKRAPGTPARFSGSLLGGKAALTLSGAQPEDEAEYYCALWYSNLWVFGGGTKLTVLGQPKAAPSVTLFPPSSKKLQANKATLVCLISDFYPGAVTVAWKADSSPVKAGVETTTPSKQSNNKYAASSYLSLTPEQWKSHRSYSCQVTHEGSTVEKTVAPTECS
light 2: QIQLVQSGHEVKKPGASVKVSCKASGYTFTNYGMNWVRQAPGQGLEWMGWINTKTGEPTYAEEFKGRFVFSLETSASTAYLQISSLKAEDMAMYFCGRGGYGSSYWYFDVWGQGTTVTVSSASVAAPSVFIFPPSDEQLKSGTASVVCLLNNFYPREAKVQWKVDNALQSGNSQESVTEQDSKDSTYSLSSTLTLSKADYEKHKVYACEVTHQGLSSPVTKSFNRGEC
notes: also called Matriptase pre-cleaved (+M) Trop2 proTCB
EC50 (read off the curve) [1]: ~0.9 nM

B2: non-cleavable Trop2 proTCB P1AI0691 (Trop2 pro-TCB 2+1; non-cleavable) (bispecific antibody, human IgG1, lambda, L234A L235A)
heavy 1: DIQMTQSPSSLSASVGDRVTITCKASQDVSIAVAWYQQKPGKAPKVLIYSASYRYTGVPDRFSGSGSGTDFTFTISSLQPEDIAVYYCQQHYITPLTFGGGTKVEIKSSASTKGPSVFPLAPSSKSTSGGTAALGCLVKDYFPEPVTVSWNSGALTSGVHTFPAVLQSSGLYSLSSVVTVPSSSLGTQTYICNVNHKPSNTKVDKKVEPKSCDKTHTCPPCPAPEAAGGPSVFLFPPKPKDTLMISRTPEVTCVVVDVSHEDPEVKFNWYVDGVEVHNAKTKPREEQYNSTYRVVSVLTVLHQDWLNGKEYKCKVSNKALGAPIEKTISKAKGQPREPQVCTLPPSRDELTKNQVSLSCAVKGFYPSDIAVEWESNGQPENNYKTTPPVLDSDGSFFLVSKLTVDKSRWQQGNVFSCSVMHEALHNHYTQKSLSLSPG
heavy 2: not shown
light 1: QAVVTQEPSLTVSPGGTVTLTCGSSTGAVTTSNYANWVQEKPGQAFRGLIGGTNKRAPGTPARFSGSLLGGKAALTLSGAQPEDEAEYYCALWYSNLWVFGGGTKLTVLGQPKAAPSVTLFPPSSKKLQANKATLVCLISDFYPGAVTVAWKADSSPVKAGVETTTPSKQSNNKYAASSYLSLTPEQWKSHRSYSCQVTHEGSTVEKTVAPTECS
light 2: QIQLVQSGHEVKKPGASVKVSCKASGYTFTNYGMNWVRQAPGQGLEWMGWINTKTGEPTYAEEFKGRFVFSLETSASTAYLQISSLKAEDMAMYFCGRGGYGSSYWYFDVWGQGTTVTVSSASVAAPSVFIFPPSDEQLKSGTASVVCLLNNFYPREAKVQWKVDNALQSGNSQESVTEQDSKDSTYSLSSTLTLSKADYEKHKVYACEVTHQGLSSPVTKSFNRGEC
notes: H1L2 mask joined by a GS linker without a protease site; also called non-cleavable proTCB
binding result [2]: no binding (tested: 50 nM) | EC50 (read off the curve) [3]: ~2 nM | EC50 (read off the curve) [4]: ~2 nM | EC50 (read off the curve) [5]: ~3 nM | EC50 (read off the curve) [6]: ~2 nM

B3: non-cleavable IGF-1R proTCB P1AH0969 (IGF-1R pro-TCB 2+1; non-cleavable) (bispecific antibody, human IgG1, lambda, L234A L235A)
heavy 1: EIVLTQSPATLSLSPGERATLSCRASQSVSSYLAWYQQKPGQAPRLLIYDASKRATGIPARFSGSGSGTDFTLTISSLEPEDFAVYYCQQRSKWPPWTFGQGTKVESKSSASTKGPSVFPLAPSSKSTSGGTAALGCLVKDYFPEPVTVSWNSGALTSGVHTFPAVLQSSGLYSLSSVVTVPSSSLGTQTYICNVNHKPSNTKVDKKVEPKSCDKTHTCPPCPAPEAAGGPSVFLFPPKPKDTLMISRTPEVTCVVVDVSHEDPEVKFNWYVDGVEVHNAKTKPREEQYNSTYRVVSVLTVLHQDWLNGKEYKCKVSNKALGAPIEKTISKAKGQPREPQVCTLPPSRDELTKNQVSLSCAVKGFYPSDIAVEWESNGQPENNYKTTPPVLDSDGSFFLVSKLTVDKSRWQQGNVFSCSVMHEALHNHYTQKSLSLSPG
heavy 2: not shown
light 1: QAVVTQEPSLTVSPGGTVTLTCGSSTGAVTTSNYANWVQEKPGQAFRGLIGGTNKRAPGTPARFSGSLLGGKAALTLSGAQPEDEAEYYCALWYSNLWVFGGGTKLTVLGQPKAAPSVTLFPPSSKKLQANKATLVCLISDFYPGAVTVAWKADSSPVKAGVETTTPSKQSNNKYAASSYLSLTPEQWKSHRSYSCQVTHEGSTVEKTVAPTECS
light 2: QVELVESGGGVVQPGRSQRLSCAASGFTFSSYGMHWVRQAPGKGLEWVAIIWFDGSSTYYADSVRGRFTISRDNSKNTLYLQMNSLRAEDTAVYFCARELGRRYFDLWGRGTLVSVSSASVAAPSVFIFPPSDEQLKSGTASVVCLLNNFYPREAKVQWKVDNALQSGNSQESVTEQDSKDSTYSLSSTLTLSKADYEKHKVYACEVTHQGLSSPVTKSFNRGEC
notes: H1L2 mask joined by a GS linker without a protease site; also called non-cleavable IGF-1R TCB construct; non-cleavable proTCB
binding result [7]: no binding (tested: 50 nM)

B4: Trop2 proTCB P1AI0690 (Trop2 pro-TCB 2+1; matriptase; P035.093 PQARK H1L2 mask), not Matriptase pre-cleaved (bispecific antibody, human IgG1, lambda, L234A L235A)
heavy 1: DIQMTQSPSSLSASVGDRVTITCKASQDVSIAVAWYQQKPGKAPKVLIYSASYRYTGVPDRFSGSGSGTDFTFTISSLQPEDIAVYYCQQHYITPLTFGGGTKVEIKSSASTKGPSVFPLAPSSKSTSGGTAALGCLVKDYFPEPVTVSWNSGALTSGVHTFPAVLQSSGLYSLSSVVTVPSSSLGTQTYICNVNHKPSNTKVDKKVEPKSCDKTHTCPPCPAPEAAGGPSVFLFPPKPKDTLMISRTPEVTCVVVDVSHEDPEVKFNWYVDGVEVHNAKTKPREEQYNSTYRVVSVLTVLHQDWLNGKEYKCKVSNKALGAPIEKTISKAKGQPREPQVCTLPPSRDELTKNQVSLSCAVKGFYPSDIAVEWESNGQPENNYKTTPPVLDSDGSFFLVSKLTVDKSRWQQGNVFSCSVMHEALHNHYTQKSLSLSPG
heavy 2: not shown
light 1: QAVVTQEPSLTVSPGGTVTLTCGSSTGAVTTSNYANWVQEKPGQAFRGLIGGTNKRAPGTPARFSGSLLGGKAALTLSGAQPEDEAEYYCALWYSNLWVFGGGTKLTVLGQPKAAPSVTLFPPSSKKLQANKATLVCLISDFYPGAVTVAWKADSSPVKAGVETTTPSKQSNNKYAASSYLSLTPEQWKSHRSYSCQVTHEGSTVEKTVAPTECS
light 2: QIQLVQSGHEVKKPGASVKVSCKASGYTFTNYGMNWVRQAPGQGLEWMGWINTKTGEPTYAEEFKGRFVFSLETSASTAYLQISSLKAEDMAMYFCGRGGYGSSYWYFDVWGQGTTVTVSSASVAAPSVFIFPPSDEQLKSGTASVVCLLNNFYPREAKVQWKVDNALQSGNSQESVTEQDSKDSTYSLSSTLTLSKADYEKHKVYACEVTHQGLSSPVTKSFNRGEC
notes: Knob-into-hole 2+1 format; also called masked Trop2 proTCB; not pre-cleaved Trop2 proTCB
binding result [2]: no binding (tested: 50 nM) | EC50 (read off the curve) [3]: ~1 nM | EC50 (read off the curve) [4]: ~2 nM | EC50 (read off the curve) [5]: ~1 nM | EC50 (read off the curve) [6]: ~1 nM

B5: IGF-1R proTCB P1AH0943 (IGF-1R pro-TCB 2+1; matriptase; P035.093 PQARK H1L2 mask), not Matriptase pre-cleaved (bispecific antibody, human IgG1, lambda, L234A L235A)
heavy 1: EIVLTQSPATLSLSPGERATLSCRASQSVSSYLAWYQQKPGQAPRLLIYDASKRATGIPARFSGSGSGTDFTLTISSLEPEDFAVYYCQQRSKWPPWTFGQGTKVESKSSASTKGPSVFPLAPSSKSTSGGTAALGCLVKDYFPEPVTVSWNSGALTSGVHTFPAVLQSSGLYSLSSVVTVPSSSLGTQTYICNVNHKPSNTKVDKKVEPKSCDKTHTCPPCPAPEAAGGPSVFLFPPKPKDTLMISRTPEVTCVVVDVSHEDPEVKFNWYVDGVEVHNAKTKPREEQYNSTYRVVSVLTVLHQDWLNGKEYKCKVSNKALGAPIEKTISKAKGQPREPQVCTLPPSRDELTKNQVSLSCAVKGFYPSDIAVEWESNGQPENNYKTTPPVLDSDGSFFLVSKLTVDKSRWQQGNVFSCSVMHEALHNHYTQKSLSLSPG
heavy 2: not shown
light 1: QAVVTQEPSLTVSPGGTVTLTCGSSTGAVTTSNYANWVQEKPGQAFRGLIGGTNKRAPGTPARFSGSLLGGKAALTLSGAQPEDEAEYYCALWYSNLWVFGGGTKLTVLGQPKAAPSVTLFPPSSKKLQANKATLVCLISDFYPGAVTVAWKADSSPVKAGVETTTPSKQSNNKYAASSYLSLTPEQWKSHRSYSCQVTHEGSTVEKTVAPTECS
light 2: QVELVESGGGVVQPGRSQRLSCAASGFTFSSYGMHWVRQAPGKGLEWVAIIWFDGSSTYYADSVRGRFTISRDNSKNTLYLQMNSLRAEDTAVYFCARELGRRYFDLWGRGTLVSVSSASVAAPSVFIFPPSDEQLKSGTASVVCLLNNFYPREAKVQWKVDNALQSGNSQESVTEQDSKDSTYSLSSTLTLSKADYEKHKVYACEVTHQGLSSPVTKSFNRGEC
notes: Knob-into-hole 2+1 format with the anti-idiotypic H1L2 scFv mask fused through a PQARK linker to the VH of the CD3 Fab; also called not-Matriptase pre-cleaved IGF-1R proTCB; not pre-cleaved IGF-1R proTCB
binding result [7]: no binding (tested: 50 nM)
